Measurements as given in patent US20240166765A1, “INFLAMMATORY DISEASE TREATMENT USING ANTI-TISSUE FACTOR ANTIBODIES” (Iconic Therapeutics LLC, priority 2020, published 2024).

Tests used:
Assay in all cases: Epitope binning, chimeric TF construct mapping (live cell staining assay)
Assay type in all cases: binding
[1] = target: T1, chimeric human-rat TF constructs expressed on HEK293 cells (Homo sapiens, UniProt P13726, A112W/A121H/D76N/DEL115-116/DUP123-123/E127T/E131K/E137D/E58Q/F108L/F82T/G113R/G75R/INS118HGKETLF/K100N/K47I/K73R/L104E/L125P/L136R/N139K/N50D/P130R/Q101W/Q64Y/S120T/S129A/S79Y/T133L/T72D/V62T/V65T/Y110V/Y126F/Y83G); settings: construct h1-107_r (52); human segment replaced by rat segment
T1 construct: expressed in transfected cells; host or cells: HEK293
Procedure: (§1) To establish binding of the anti-human TF antibodies to the various TF constructs, HEK293 cells were transfected with a DNA plasmid that co-expresses the TF construct and a green fluorescent protein marker. For a subset of the antibodies, an antibody titration (a 12-point 1:3 dilution series starting at 250 nM) was evaluated on select TF constructs (See international PCT application PCT/US2019/012427 and U.S. utility application Ser. No. 16/959,652, incorporated herein by reference in their entirety). […] Two days after transfection, cells were collected from the tissue culture plate, stained with 15 μg/ml of the indicated anti-TF antibody, washed, stained with anti-human IgG-Fc Alexa Fluor 647 polyclonal antibody, washed, and stained with the viability dye 4′,6-Diamidino-2-Phenylindole, Dihydrochloride. Upon acquisition of 80,000 live events on a flow cytometer, live cells marked with the fluorescent marker were analyzed for the degree of staining by the anti-TF antibody. […] As used herein, the term “live cell staining assay” refers to the antibody binding assay used in this example.
(§2) When “Percentage antibody binding to TF construct relative to hTF” in Tables 51 and 52 was less than 50%, the antibody was considered a non-binder (0) in Tables 53 and 54.

[2] = target: T2, chimeric human-rat TF constructs expressed on HEK293 cells (Homo sapiens, UniProt P13726, A112W/A121H/DEL115-116/DUP123-123/E127T/E131K/E137D/G113R/INS118HGKETLF/L125P/L136R/N139K/P130R/S120T/S129A/T133L/Y110V/Y126F); settings: construct h78-107_r.v2 (27); human segment replaced by rat segment
T2 construct: expressed in transfected cells; host or cells: HEK293
Procedure: as §1, §2

[3] = target: T3, chimeric human-rat TF constructs expressed on HEK293 cells (Homo sapiens, UniProt P13726, A200N/K197R/K201T/N203H/S192D/S195T); settings: construct h159-174_r (6); human segment replaced by rat segment
T3 construct: expressed in transfected cells; host or cells: HEK293
Procedure: as §1, §2

[4] = target: T4, chimeric human-rat TF constructs expressed on HEK293 cells (Homo sapiens, UniProt P13726, D177Q/E160K/E162S/F148Y/I184G/K181N/L140I/N156K/N170G/R163F/R168K/S147K/S174T/T144V/T186I/V151G/V155L/W190R/Y188T); settings: construct h108-158_r (19); human segment replaced by rat segment
T4 construct: expressed in transfected cells; host or cells: HEK293
Procedure: as §1, §2

[5] = target: T5, chimeric human-rat TF constructs expressed on HEK293 cells (Homo sapiens, UniProt P13726, D177Q/I184G/K181N/N170G/R168K/S174T/T186I/W190R/Y188T); settings: construct h133-158_r (9); human segment replaced by rat segment
T5 construct: expressed in transfected cells; host or cells: HEK293
Procedure: as §1, §2

[6] = target: T6, chimeric human-rat TF constructs expressed on HEK293 cells (Homo sapiens, UniProt P13726, D177Q/N170G/R168K/S174T); settings: construct h133-145_r (4); human segment replaced by rat segment
T6 construct: expressed in transfected cells; host or cells: HEK293
Procedure: as §1, §2

[7] = target: T7, chimeric human-rat TF constructs expressed on HEK293 cells (Homo sapiens, UniProt P13726, D212E/E215V/N216S/S220F/V221A); settings: construct h175-189_r (5); human segment replaced by rat segment
T7 construct: expressed in transfected cells; host or cells: HEK293
Procedure: as §1, §2

[8] = target: T8, chimeric human-rat TF constructs expressed on HEK293 cells (Homo sapiens, UniProt P13726, D76N/E58Q/F108L/F82T/G75R/K100N/K47I/K73R/L104E/N50D/Q101W/Q64Y/S79Y/T72D/V62T/V65T/Y83G); settings: construct h1-77_r (25); human segment replaced by rat segment
T8 construct: expressed in transfected cells; host or cells: HEK293
Procedure: as §1, §2

[9] = target: T9, chimeric human-rat TF constructs expressed on HEK293 cells (Homo sapiens, UniProt P13726, D76N/F108L/F82T/G75R/K100N/K73R/L104E/Q101W/S79Y/T72D/Y83G); settings: construct h39-77_r (11); human segment replaced by rat segment
T9 construct: expressed in transfected cells; host or cells: HEK293
Procedure: as §1, §2

[10] = target: T10, chimeric human-rat TF constructs expressed on HEK293 cells (Homo sapiens, UniProt P13726, E127T/E131K/E137D/L136R/N139K/P130R/S129A/T133L/Y126F); settings: construct h94-107_r (9); human segment replaced by rat segment
T10 construct: expressed in transfected cells; host or cells: HEK293
Procedure: as §1, §2

[11] = target: T11, chimeric human-rat TF constructs expressed on HEK293 cells (Homo sapiens, UniProt P13726, E58Q/K47I/N50D/Q64Y/V62T/V65T); settings: construct h1-38_r (14); human segment replaced by rat segment
T11 construct: expressed in transfected cells; host or cells: HEK293
Procedure: as §1, §2

[12] = target: T12, chimeric human-rat TF constructs expressed on HEK293 cells (Homo sapiens, UniProt P13726, I184G/K181N/T186I/W190R/Y188T); settings: construct h146-158_r (5); human segment replaced by rat segment
T12 construct: expressed in transfected cells; host or cells: HEK293
Procedure: as §1, §2

[13] = target: T13, chimeric human-rat TF constructs expressed on HEK293 cells (Homo sapiens, UniProt P13726, K181N)
T13 construct: expressed in transfected cells; host or cells: HEK293
Procedure: as §1, §2

[14] = target: T14, chimeric human-rat TF constructs expressed on HEK293 cells (Homo sapiens, UniProt P13726, N170G/R168K); settings: construct h133-139_r (2); human segment replaced by rat segment
T14 construct: expressed in transfected cells; host or cells: HEK293
Procedure: as §1, §2

With TF-011 the “Antibody binding to TF construct” value [1] was 0 (less than 50%, the antibody was considered a non-binder (0)), the “Antibody binding to TF construct” value [2] was 0 (less than 50%, the antibody was considered a non-binder (0)) and the “Antibody binding to TF construct” value [3] was 1 (between 50% and 150%, the antibody was considered a binder (1)). For the same substance, the “Antibody binding to TF construct” value [4] was 1 (between 50% and 150%, the antibody was considered a binder (1)), the “Antibody binding to TF construct” value [5] was 1 (between 50% and 150%, the antibody was considered a binder (1)) and the “Antibody binding to TF construct” value [6] was 1 (between 50% and 150%, the antibody was considered a binder (1)). For the same substance, the “Antibody binding to TF construct” value [7] was 1 (between 50% and 150%, the antibody was considered a binder (1)), the “Antibody binding to TF construct” value [8] was 0 (less than 50%, the antibody was considered a non-binder (0)) and the “Antibody binding to TF construct” value [9] was 0 (less than 50%, the antibody was considered a non-binder (0)). The “Antibody binding to TF construct” value [10] was 0 (less than 50%, the antibody was considered a non-binder (0)), the “Antibody binding to TF construct” value [11] was 1 (between 50% and 150%, the antibody was considered a binder (1)) and the “Antibody binding to TF construct” value [12] was 1 (between 50% and 150%, the antibody was considered a binder (1)). For the same substance, the “Antibody binding to TF construct” value ([13]; construct h146-151_r (1), human segment replaced by rat segment) was 1 (between 50% and 150%, the antibody was considered a binder (1)), the “Antibody binding to TF construct” value ([13]; construct hTF_K149N) was 1 (between 50% and 150%, the antibody was considered a binder (1)) and the “Antibody binding to TF construct” value [14] was 1 (between 50% and 150%, the antibody was considered a binder (1)).
